Tests used:
[1] = system: CHOPWT10 human iPSC line; test: Induction of KDR+CD235a/b+ mesoderm from CHOPWT10 iPSCs (Activin A titration, flow cytometry); type: cell-based
Method: (§1) hPSC differentiation to the hematopoietic lineage was performed in StemPro-34 media supplemented with penicillin/streptomycin (1%, ThermoFisher), L-glutamine (2 mM, ThermoFisher), ascorbic acid (50 μg/mL, Millipore Sigma), transferrin (150 μg/mL, ROCHE), monothioglycerol (50 μg/mL, Millipore Sigma) and other stage-specific factors for example as described below. Differentiation cultures were maintained in hypoxic conditions (37° C., 5% CO2, 5% O2) unless otherwise indicated. On day 0, hPSC cultures at 80-90% confluency were treated with TrypLE for 3 minutes at 37° C. Thereafter, the 80-90% of the TrypLE was aspirated and the cultures were incubated at 37° C. for an additional 2 minutes. […]
(§2) EBs prior to day 9 of differentiation, monolayer cultures and cultures aggregated after cell sorting were dissociated with Trypsin (Corning) for 5 minutes at 37° C. […] For fluorescence-activated cell sorting (FACS), cells were stained, sorted and collected in StemPro-34 media supplemented with penicillin/streptomycin (1%), L-glutamine (2 mM) and DNaseI. […] Thereafter, the sorted cells were counted and resuspended at 250,000 cells/mL in StemPro-34 media supplemented with recombinant factors appropriate for the day of differentiation. […]

[2] = system: H1 human embryonic stem cell (hESC) line; test: Induction of KDR+CD235a/b+ mesoderm from H1 hESCs (Activin A titration, flow cytometry); type: cell-based
Method: as §1, §2

B1: Activin A: activin receptor agonist; human Activin A (Uniprot accession number: P08476), recombinant, from R&D Systems (protein, UniProt P08476 311-426, looked up)
Inhibin beta A chain: GLECDGKVNICCKKQFFVSFKDIGWNDWIIAPSGYHANYCEGECPSHIAGTSGSSLSFHSTVINHYRMRGHSPFANLKSCCVPTKLRPMSMLYYDDGQNIIKKDIQNMIVEECGCS
Question: Which results are given for B1?
Answer: proportion of KDR+CD235a/b+ cells ([1]; 2 ng/mL Activin A, CHOPWT10 human iPSC line, day 4): greater than 30%; proportion of KDR+CD235a/b+ cells at day 4 of differentiation ([1]; 2 or 4 ng/mL Activin A within 0 to 10 ng/mL titration, with BMP4 10 ng/mL and FGF2 5 ng/mL, days 1 to 4): highest proportion; proportion of KDR+CD235a/b+ cells ([2]; 6 ng/mL Activin A with 10 ng/mL BMP4 and 5 ng/mL FGF2, day 4 of differentiation, H1): greater than 30%; frequency of CD235a/b+ cells ([2]; Activin A 0 to 10 ng/mL with BMP4 10 ng/mL and FGF2 5 ng/mL from day 1 of differentiation): increased in an Activin A dose-dependent manner and plateaued when its concentration exceeded 6 ng/mL
